In patent US8440804B2, “Polypeptides having modulatory effects on cells” (Ecole Normale Superieure de Lyon, priority 2006, dated 2013):

Legend:
[1] = tested on: purified CNA (calcineurin); assay: In vitro calcineurin phosphatase assay (pNPP substrate); assay type: biochemical
Method: (A) In vitro calcineurin phosphatase assay. Dephosphorylation of the model substrate pNPP by purified calcineurin was measured in presence of various amounts of purified calmodulin (CaM), GST-R5G42 or GST-R7G44 fusion proteins.
The inventors next explored the ability of R5G42 to modulate the enzymatic activity of its target protein. To this end, they first performed an in vitro phosphatase assay using purified CNA and para-nitrophenylphosphate (pNPP) as a substrate.
GST-aptamer fusion proteins were first produced as described above. For this experiment, GST-aptamer fusion proteins were eluted from glutathion sepharose beads using 20 mM reduced L-glutathione (Sigma), and the eluates were dialyzed overnight against a phosphatase buffer (50 mM Tris-HCl pH7.4, 0.1 mM CaCl2). The phosphatase activity of calcineurin was measured using pNPP (Sigma) as substrate, in a final volume of 100 μl. The sample solution contained 50 mM Tris-HCl (pH7.4), 0.1 mM CaCl2, 1 mM NiSO4, 0.15 mg/ml BSA (Sigma), 0.1 μM calcineurin (Upstate). Purified calmodulin (Upstate) and GST-aptamer fusion proteins were added at different concentrations (see figure legend). After a 15 min pre-incubation at 37° C., the reactions were started by adding 4.1 mM pNPP and the mixtures were incubated at 37° C. for 20 min. The nitrophenylate product was measured at 405 nm using an Envision plate reader (Perkin Elmer). The background level that was determined was subtracted using a mixture lacking calcineurin.

[2] = tested on: purified CNA (bovine brain purified calcineurin); assay: In vitro binding assay (affinity capture on glutathione-sepharose, western blot); conditions: glutathione-sepharose beads, anti-calcineurin western blot
Text: (C) Affinity capture assay.
The inventors performed two yeast two-hybrid screening experiments against a LexA-R5G42 bait protein, using a human testis and a human fcetal brain cDNA library. They obtained 29 and 42 reconfirmed clones, respectively. […] The inventors thus retained two candidates. The highest occurring clone, from both libraries, corresponded to the NS5A-TP2 protein, recently discovered through a systematic search for genes that are transactivated by the non-structural NS5A protein from hepatitis C virus (22). No biological knowledge is currently available for this protein. The other remaining target candidate was calcineurin A (CNA), for which two different isoforms (beta and gamma) were selected from the testes library (see FIG. 3A). To confirm the interaction between R5G42 and CNA, the inventors performed an in vitro binding assay between recombinant purified GST-aptamer fusion proteins, coupled to a glutathione-sepharose matrix, and purified CNA.
In Vitro Binding Assay pVRV6-aptamer plasmids were first digested with EcoRI and XhoI and the fragments were ligated into EcoRI/XhoI-cut pGEX4T1. GST-aptamer fusions were expressed in a BL-21(DE3) E. coli strain. […] The samples were loaded onto a SDS-PAGE, transferred to nitrocellulose membrane, and calcineurin was detected by western-blotting using an anti-calcineurin pan A antibody (1/1000, Chemicon International). […]

calmodulin [CaM, reference compound]
activation of CNA phosphatase activity ([1]; addition of purified calmodulin, pNPP): required to activate CNA

B1: GST-R5G42: recombinant purified GST-aptamer fusion protein of R5G42 (protein)
chain: MVKQIESKTAFQEALDAAGDKLVVVDFSATWCGPSAVTFAVCALGPCKMIKPFFHSLSEKYSNVIFLEVDVDDCQDVASECEVKCMPTFQFFKKGQKVGEFSGANKEKLEATINELV
modifications: left off: a dimerising Fc or GST
capture of purified CNA by GST-aptamer solid phase [2]: readily captured CNA
CNA phosphatase activity in absence of CaM ([1]; high concentrations of GST-aptamer, pNPP, 0.1 μM calcineurin): activated CNA phosphatase activity in absence of CaM, to a level comparable to that observed using CaM
effect on CaM-activated CNA phosphatase activity ([1]; in presence of CaM (not shown)): did not result in an inhibition or an exacerbation
